# T1: SRD5A2 (steroid 5α-reductase type II) (Homo sapiens, UniProt P31213, A49T/L89V)
# T1 construct: expressed in transfected cells; host or cells: cos cells (electroporated; sonicated cell extracts)
# T1 sequence (P31213 1-254 A49T/L89V): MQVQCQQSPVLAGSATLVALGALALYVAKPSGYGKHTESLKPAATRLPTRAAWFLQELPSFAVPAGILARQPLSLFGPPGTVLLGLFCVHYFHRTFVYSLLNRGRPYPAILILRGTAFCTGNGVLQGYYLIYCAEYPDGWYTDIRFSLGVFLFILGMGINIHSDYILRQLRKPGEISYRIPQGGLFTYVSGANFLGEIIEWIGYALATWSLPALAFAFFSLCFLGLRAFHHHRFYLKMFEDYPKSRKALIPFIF
# Legend:
# [1] = tested on: SRD5A2 (steroid 5α-reductase type II); experiment: SRD5A2 activity in extracts of transfected cos cells: conversion of [14C] testosterone to [14C] dihydrotestosterone with NADPH; format: biochemical, human; conditions: for Vmax for testosterone to dihydrotestosterone conversion: normalized protein extracts of transfected cos cells, 37° C., cofactor NADPH
# [2] = target: T1, SRD5A2 (steroid 5α-reductase type II); experiment: as above; format: biochemical; conditions: substrate testosterone
Molecule,Vmax for testosterone to dihydrotestosterone conversion [1],testosterone concentration at which the enzyme is substrate inhibited [1],apparent KM for testosterone compared to the normal enzyme [2]
"normal enzyme: normal (wild type) steroid 5α-reductase type II from the SRD5A2 construct expressed in cos cells (protein, UniProt P31213 1-254, looked up) 3-oxo-5-alpha-steroid …: MQVQCQQSPVLAGSATLVALGALALYVAKPSGYGKHTESLKPAATRLPARAAWFLQELPSFAVPAGILARQPLSLFGPPGTVLLGLFCLHYFHRTFVYSLLNRGRPYPAILILRGTAFCTGNGVLQGYYLIYCAEYPDGWYTDIRFSLGVFLFILGMGINIHSDYILRQLRKPGEISYRIPQGGLFTYVSGANFLGEIIEWIGYALATWSLPALAFAFFSLCFLGLRAFHHHRFYLKMFEDYPKSRKALIPFIF",1.3 nmol/min/mg,1.5 µM,–
"A49T enzyme: steroid 5α-reductase type II encoded by SRD5A2 cDNA with the A49T missense mutation, expressed in cos cells (protein, UniProt P31213 1-254, looked up, variant A49T) 3-oxo-5-alpha-steroid …: MQVQCQQSPVLAGSATLVALGALALYVAKPSGYGKHTESLKPAATRLPTRAAWFLQELPSFAVPAGILARQPLSLFGPPGTVLLGLFCLHYFHRTFVYSLLNRGRPYPAILILRGTAFCTGNGVLQGYYLIYCAEYPDGWYTDIRFSLGVFLFILGMGINIHSDYILRQLRKPGEISYRIPQGGLFTYVSGANFLGEIIEWIGYALATWSLPALAFAFFSLCFLGLRAFHHHRFYLKMFEDYPKSRKALIPFIF",3.8 nmol/min/mg,6 µM,higher KM for testosterone

# Source: patent publication US6395479B1, “Androgen-metabolic gene mutations and prostate cancer risk” (University of Southern California, priority 1998, dated 2002)
